*1 amine or outer side, *2 acyl side, *3 side chain or, on linkers, in order; H or OH if unused. Bridges are numbered along the chain shown (N, C = ends). [ ]: non-standard residue; d: D form. N5,N5‑dimethylglutamine = CN(C)C(=O)CC[C@H](N[*:1])C(=O)[*:2]; Pro(4S-NH2) = N[C@@H]1CN[C@H](C(=O)O)C1
B1: Intermediate 19 (peptide)
peptide: PDCAWHLGELVWCTP
modifications: residue 1 = (2S,4S)-4-aminoproline; residue 12 = 6-chlorotryptophan; residue 15 = D-Pro; backbone cyclised head to tail; disulfide Cys3-Cys13
B2: Intermediate 26 (peptide)
peptide: cyclo([Pro(4S-NH2)]ACAWHLG[N5,N5‑dimethylglutamine]LVWCT[dP])
modifications: disulfide 3-13
SMILES: CC(C)C[C@@H]1NC(=O)[C@H](Cc2c[nH]cn2)NC(=O)[C@H](Cc2c[nH]c3ccccc23)NC(=O)[C@H](C)NC(=O)[C@@H]2CSSC[C@H](NC(=O)[C@H](Cc3c[nH]c4ccccc34)NC(=O)[C@H](C(C)C)NC(=O)[C@H](CC(C)C)NC(=O)[C@H](CCC(=O)N(C)C)NC(=O)CNC1=O)C(=O)N[C@@H]([C@@H](C)O)C(=O)N1CCC[C@@H]1C(=O)N1C[C@@H](N)C[C@H]1C(=O)N[C@@H](C)C(=O)N2
B3: Intermediate 15 (peptide)
peptide: cyclo([Pro(4S-NH2)]ACSWHLGELVWCT[dP])
modifications: disulfide 3-13
SMILES: CC(C)C[C@@H]1NC(=O)[C@H](Cc2c[nH]cn2)NC(=O)[C@H](Cc2c[nH]c3ccccc23)NC(=O)[C@H](CO)NC(=O)[C@@H]2CSSC[C@H](NC(=O)[C@H](Cc3c[nH]c4ccccc34)NC(=O)[C@H](C(C)C)NC(=O)[C@H](CC(C)C)NC(=O)[C@H](CCC(=O)O)NC(=O)CNC1=O)C(=O)N[C@@H]([C@@H](C)O)C(=O)N1CCC[C@@H]1C(=O)N1C[C@@H](N)C[C@H]1C(=O)N[C@@H](C)C(=O)N2
B4: Intermediate 24 (peptide)
peptide: PDCAWHLGELVWCTP
modifications: residue 1 = (2S,4S)-4-aminoproline; residue 12 = D-Trp; residue 15 = D-Pro; backbone cyclised head to tail; disulfide Cys3-Cys13
B5: Intermediate 18 (peptide)
peptide: cyclo([Pro(4S-NH2)]DCAWHLGQLVWCT[dP])
modifications: disulfide 3-13
SMILES: CC(C)C[C@@H]1NC(=O)[C@H](Cc2c[nH]cn2)NC(=O)[C@H](Cc2c[nH]c3ccccc23)NC(=O)[C@H](C)NC(=O)[C@@H]2CSSC[C@H](NC(=O)[C@H](Cc3c[nH]c4ccccc34)NC(=O)[C@H](C(C)C)NC(=O)[C@H](CC(C)C)NC(=O)[C@H](CCC(N)=O)NC(=O)CNC1=O)C(=O)N[C@@H]([C@@H](C)O)C(=O)N1CCC[C@@H]1C(=O)N1C[C@@H](N)C[C@H]1C(=O)N[C@@H](CC(=O)O)C(=O)N2
B6: Intermediate 21 (peptide)
peptide: PDCXWHLGELVWCTP
modifications: residue 1 = (2S,4S)-4-aminoproline; residue 4 (X) = homoserine; residue 15 = D-Pro; backbone cyclised head to tail; disulfide Cys3-Cys13
B7: Intermediate 16 (peptide)
peptide: cyclo([Pro(4S-NH2)]DCTWHLGELVWCT[dP])
modifications: disulfide 3-13
SMILES: CC(C)C[C@@H]1NC(=O)[C@H](Cc2c[nH]cn2)NC(=O)[C@H](Cc2c[nH]c3ccccc23)NC(=O)[C@H]([C@@H](C)O)NC(=O)[C@@H]2CSSC[C@H](NC(=O)[C@H](Cc3c[nH]c4ccccc34)NC(=O)[C@H](C(C)C)NC(=O)[C@H](CC(C)C)NC(=O)[C@H](CCC(=O)O)NC(=O)CNC1=O)C(=O)N[C@@H]([C@@H](C)O)C(=O)N1CCC[C@@H]1C(=O)N1C[C@@H](N)C[C@H]1C(=O)N[C@@H](CC(=O)O)C(=O)N2
B8: Intermediate 27 (peptide)
peptide: cyclo([Pro(4S-NH2)]NCAWHLG[N5,N5‑dimethylglutamine]LVWCT[dP])
modifications: disulfide 3-13
SMILES: CC(C)C[C@@H]1NC(=O)[C@H](Cc2c[nH]cn2)NC(=O)[C@H](Cc2c[nH]c3ccccc23)NC(=O)[C@H](C)NC(=O)[C@@H]2CSSC[C@H](NC(=O)[C@H](Cc3c[nH]c4ccccc34)NC(=O)[C@H](C(C)C)NC(=O)[C@H](CC(C)C)NC(=O)[C@H](CCC(=O)N(C)C)NC(=O)CNC1=O)C(=O)N[C@@H]([C@@H](C)O)C(=O)N1CCC[C@@H]1C(=O)N1C[C@@H](N)C[C@H]1C(=O)N[C@@H](CC(N)=O)C(=O)N2
B9: Intermediate 28 (peptide)
peptide: cyclo([Pro(4S-NH2)]NCAWHLGALVWCT[dP])
modifications: disulfide 3-13
SMILES: CC(C)C[C@@H]1NC(=O)[C@H](C)NC(=O)CNC(=O)[C@H](CC(C)C)NC(=O)[C@H](Cc2c[nH]cn2)NC(=O)[C@H](Cc2c[nH]c3ccccc23)NC(=O)[C@H](C)NC(=O)[C@@H]2CSSC[C@H](NC(=O)[C@H](Cc3c[nH]c4ccccc34)NC(=O)[C@H](C(C)C)NC1=O)C(=O)N[C@@H]([C@@H](C)O)C(=O)N1CCC[C@@H]1C(=O)N1C[C@@H](N)C[C@H]1C(=O)N[C@@H](CC(N)=O)C(=O)N2
B10: Intermediate 25 (peptide)
peptide: cyclo([Pro(4S-NH2)]ACAWHLGALVWCT[dP])
modifications: disulfide 3-13
SMILES: CC(C)C[C@@H]1NC(=O)[C@H](C)NC(=O)CNC(=O)[C@H](CC(C)C)NC(=O)[C@H](Cc2c[nH]cn2)NC(=O)[C@H](Cc2c[nH]c3ccccc23)NC(=O)[C@H](C)NC(=O)[C@@H]2CSSC[C@H](NC(=O)[C@H](Cc3c[nH]c4ccccc34)NC(=O)[C@H](C(C)C)NC1=O)C(=O)N[C@@H]([C@@H](C)O)C(=O)N1CCC[C@@H]1C(=O)N1C[C@@H](N)C[C@H]1C(=O)N[C@@H](C)C(=O)N2
B11: Intermediate 17 (peptide)
peptide: cyclo([Pro(4S-NH2)]DCAWHLGALVWCT[dP])
modifications: disulfide 3-13
SMILES: CC(C)C[C@@H]1NC(=O)[C@H](C)NC(=O)CNC(=O)[C@H](CC(C)C)NC(=O)[C@H](Cc2c[nH]cn2)NC(=O)[C@H](Cc2c[nH]c3ccccc23)NC(=O)[C@H](C)NC(=O)[C@@H]2CSSC[C@H](NC(=O)[C@H](Cc3c[nH]c4ccccc34)NC(=O)[C@H](C(C)C)NC1=O)C(=O)N[C@@H]([C@@H](C)O)C(=O)N1CCC[C@@H]1C(=O)N1C[C@@H](N)C[C@H]1C(=O)N[C@@H](CC(=O)O)C(=O)N2
B12: Intermediate 23 (peptide)
peptide: cyclo([Pro(4S-NH2)]DCAWHLG[N5,N5‑dimethylglutamine]LVWCT[dP])
modifications: disulfide 3-13
SMILES: CC(C)C[C@@H]1NC(=O)[C@H](Cc2c[nH]cn2)NC(=O)[C@H](Cc2c[nH]c3ccccc23)NC(=O)[C@H](C)NC(=O)[C@@H]2CSSC[C@H](NC(=O)[C@H](Cc3c[nH]c4ccccc34)NC(=O)[C@H](C(C)C)NC(=O)[C@H](CC(C)C)NC(=O)[C@H](CCC(=O)N(C)C)NC(=O)CNC1=O)C(=O)N[C@@H]([C@@H](C)O)C(=O)N1CCC[C@@H]1C(=O)N1C[C@@H](N)C[C@H]1C(=O)N[C@@H](CC(=O)O)C(=O)N2

The binders below were run against IgG (assay: SPR, IgG immobilised on CM5 chip, compound as analyte; value from the legend of the grade (++++ = Kd <100 nM)).

Kd, < 100 nM:
B1
B2
B3
B4
B5
B6
B7
B8
B9
B10
B11
cyclo([Pro(4S-NH2)]DCAWHLG[N5‑methylglutamine]LVWCT[dP]) (disulfide 3-13) [Intermediate 22]
B12

What follows are binders tested against IgG (assay: SPR, IgG immobilised on CM5 chip, compound as analyte; value from the legend of the grade (**** = Kd <100 nM)).

Kd, < 100 nM:
B1
B2
B3
B4
B5
B6
B7
B8
B9
B10
B11
cyclo([Pro(4S-NH2)]DCAWHLG[N5‑methylglutamine]LVWCT[dP]) (disulfide 3-13) [Intermediate 22]
B12

Source: patent US20250223280A1
